Experimental findings from article PMC10761072, “Post-transcriptional capping generates coenzyme A-linked RNA” (RNA Biology, 2023) are described below.

Substrate in this data set: CC(C)(COP(=O)(O)O)[C@@H](O)C(=O)NCCC(=O)NCCS
In words: purified protein. It is filed as biochemical, Escherichia coli. Conditions: 10 µM pppAGGAA RNA as acceptor, 500 nM PPAT, 5 mM MgCl2, pH 7.5, 37°C, pPant 10-200 µM.

B1: phosphopantetheine adenylyltransferase (PPAT, CoaD) (Escherichia coli K-12) (protein)
chain: MQKRAIYPGTFDPITNGHIDIVTRATQMFDHVILAIAASPSKKPMFTLEERVALAQQATAHLGNVEVVGFSDLMANFARNQHATVLIRGLRAVADFEYEMQLAHMNRHLMPELESVFLMPSKEWSFISSSLVKEVARHQGDVTHFLPENVHQALMAKLA
notes: recombinant full-length enzyme expressed from coaD plasmid and purified; hexamer
Turning to B1, the Km was determined as 14 µM.

One may read the Km as the concentration of substrate that gives half-maximal velocity.
